The source of these data is US20110306096A1 (PACIFIC BIOSCIENCES OF CALIFORNIA, published 2011).

Changes are numbered by the printed parent chain.

The target in this experiment is T1, streptavidin (UniProt P22629 37-163, limits assumed).
T1 construct: Used at a 2-fold molar excess over the fusion protein
In words: HPLC after mixing the purified fusion protein with a 2-fold molar excess of streptavidin. The method, then: Each of the DNA sequences encoding the affinity peptides was added individually to the 5′ terminus of a His(10)-tagged phi29 DNA polymerase gene such that the polypeptide expressed from each construct was a fusion protein consisting of: N-terminus-biotinylation peptide-His(10)-phi29 pol-C-terminus. Each gene was expressed in E. coli cells co-expressing biotin ligase in culture medium containing biotin. These conditions are known to effect the in-vivo biotinylation of biotinylation peptides. Proteins were purified using Ni-NTA columns and then mixed with a 2-fold molar excess of streptavidin under conditions known to effect binding of streptavidin to biotinylated fusion proteins.
The degree of biotinylation of each protein was assessed by HPLC. […] None of the biotinylation peptides affected the polymerase activity when tested in a branching fraction assay performed, for example, as described in U.S. patent application No. 2010/0112645.

T1 sequence (P22629 37-163 limits assumed): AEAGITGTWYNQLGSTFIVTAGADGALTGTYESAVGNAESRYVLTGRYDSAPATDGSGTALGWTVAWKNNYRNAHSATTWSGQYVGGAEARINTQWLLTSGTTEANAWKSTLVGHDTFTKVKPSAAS

B1: SEQ ID NO 11 (other, phi29)
chain: LNDIFNAQKIEWHHHHHHHHHHHMKHMPRKMYSCDFETTTKVEDCRVWAYGYMNIEDHSEYKIGNSLDEFMAWVLKVQADLYFHNLKFDGAFIINWLERNGFKWSADGLPNTYNTIISRMGQWYMIDICLGYKGKRKIHTVIYDSLKKLPFPVKKIAKDFKLTVLKGDIDYHKERPVGYKITPEEYAYIKNDIQIIAEALLIQFKQGLDRMTAGSDSLKGFKDIITTKKFKKVFPTLSLGLDKEVRYAYRGGFTWLNDRFKEKEIGEGMVFDVNSLYPAQMYSRLLPYGEPIVFEGKYVWDEDYPLHIQHIRCEFELKEGYIPTIQIKRSRFYKGNEYLKSSGGEIADLWLSNVDLELMKEHYDLYNVEYISGLKFKATTGLFKDFIDKWTYIKTTSEGAIKQLAKLMLNSLYGKFASNPDVTGKVPYLKENGALGFRLGEEETKDPVYTPMGVFITAWARYTTITAAQACYDRIIYCDTDSIHLTGTEIPDVIKDIVDPKKLGYWAHESTFKRAKYLRQKTYIQDIYMKEVDGKLVEGSPDDYTDIKFSVKCAGMTDKIKKEVTFENFKVGFSRKMKPKPVQVPGGVVLVDDTFTIK
modifications: biotin on the lysine of the biotinylation peptide (in-vivo biotinylation by biotin ligase)
notes: N-terminus-biotinylation peptide-His(10)-phi29 pol-C-terminus; expressed in E. coli co-expressing biotin ligase, Ni-NTA purified
In the case of B1, the “percent bound to streptavidin” value is ~100%.

B2: SEQ ID NO 12 (other, phi29)
chain: B1 chain with N6S
modifications: biotin on the lysine of the biotinylation peptide (in-vivo biotinylation by biotin ligase)
notes: as for B1
As to B2, the “percent bound to streptavidin” value is ~100%.

B3: SEQ ID NO 7 (other, phi29)
chain: B1 chain with I4L, N6E
modifications: biotin on the lysine of the biotinylation peptide (in-vivo biotinylation by biotin ligase)
notes: as for B1
Regarding B3, the “percent bound to streptavidin” value was ~100%.

B4: SEQ ID NO 3 (other, phi29)
chain: B1 chain with I4F
modifications: biotin on the lysine of the biotinylation peptide (in-vivo biotinylation by biotin ligase)
notes: as for B1
As to B4, the “percent bound to streptavidin” value is ~100%.

B5: SEQ ID NO 8 (other, phi29)
chain: B1 chain with I4F, N6E
modifications: biotin on the lysine of the biotinylation peptide (in-vivo biotinylation by biotin ligase)
notes: as for B1
Turning to B5, the “percent bound to streptavidin” value was ~100%.

B6: SEQ ID NO 5 (other, phi29)
chain: B1 chain with L1I, N6E
modifications: biotin on the lysine of the biotinylation peptide (in-vivo biotinylation by biotin ligase)
notes: as for B1
As to B6, the “percent bound to streptavidin” value was ~100%.

B7: SEQ ID NO 6 (other, phi29)
chain: B1 chain with D3L, N6E
modifications: biotin on the lysine of the biotinylation peptide (in-vivo biotinylation by biotin ligase)
notes: as for B1
Regarding B7, the “percent bound to streptavidin” value is ~100%.

B8: SEQ ID NO 10 (other, phi29)
chain: B1 chain with N6H
modifications: biotin on the lysine of the biotinylation peptide (in-vivo biotinylation by biotin ligase)
notes: as for B1
Consider B8, for which the “percent bound to streptavidin” value is ~100%.

B9: SEQ ID NO 4 (other, phi29)
chain: B1 chain with L1I, I4L, N6S
modifications: biotin on the lysine of the biotinylation peptide (in-vivo biotinylation by biotin ligase)
notes: as for B1
B9: the “percent bound to streptavidin” value is ~100%.
